How the values were obtained:
[1] = target: T1, WT mTfR-1 expressed on Expi293 cells (mouse, UniProt Q62351 1-763); assay: FACS, transfected Expi293 cells
T1 construct: whole, on cells
Procedure: (§1) Transfected Expi293 cells were harvested and 2×10⁵ cells were transferred into V-bottom 96-well plate for staining. The cells were blocked in PBS containing 1% BSA (FACS buffer) for 10 min on ice, centrifuged to remove the buffer and 1 μl of 8D3-hFc formatted antibody, Clone C-hFc or Clone C variants 18 and 13 (Table 1), all at 1 mg/ml, was added to the wells. The cells were co-stained with mouse Tf-Alexa647 (Jackson ImmunoResearch). After 30 minutes on ice, the cells were washed and incubated with anti-hFc-PE (eBioscience) for 20 minutes on ice, washed again and resuspended in […] of FACS buffer containing 5 μl of propidium iodide (PI) to exclude dead cells from the analysis. The percentage of double-positive cells that stained with mTf and the tested antibody was determined on a CytoFlex cytometer (Beckman Coulter). The percentage of cells in the double positive quadrant (Q2) for WT mTfR-1 was used for normalization.

[2] = target: T2, mTfR-1 Q193A on Expi293 cells (mouse, UniProt Q62351 1-763); assay: FACS, transfected Expi293 cells
T2 construct: whole, on cells
Procedure: as §1

[3] = target: T3, mTfR-1 V194A on Expi293 cells (mouse, UniProt Q62351 1-763); assay: FACS, transfected Expi293 cells
T3 construct: whole, on cells
Procedure: as §1

[4] = target: T4, mTfR-1 S197A on Expi293 cells (mouse, UniProt Q62351 1-763); assay: FACS, transfected Expi293 cells
T4 construct: whole, on cells
Procedure: as §1

[5] = target: T5, mTfR-1 I198A on Expi293 cells (mouse, UniProt Q62351 1-763); assay: FACS, transfected Expi293 cells
T5 construct: whole, on cells
Procedure: as §1

[6] = target: T6, mTfR-1 G199A on Expi293 cells (mouse, UniProt Q62351 1-763); assay: FACS, transfected Expi293 cells
T6 construct: whole, on cells
Procedure: as §1

[7] = target: T7, mTfR-1 E229A on Expi293 cells (mouse, UniProt Q62351 1-763); assay: FACS, transfected Expi293 cells
T7 construct: whole, on cells
Procedure: as §1

[8] = target: T8, mTfR-1 V230A on Expi293 cells (mouse, UniProt Q62351 1-763); assay: FACS, transfected Expi293 cells
T8 construct: whole, on cells
Procedure: as §1

[9] = target: T9, mTfR-1 G254A on Expi293 cells (mouse, UniProt Q62351 1-763); assay: FACS, transfected Expi293 cells
T9 construct: whole, on cells
Procedure: as §1

[10] = target: T10, mTfR-1 I279A on Expi293 cells (mouse, UniProt Q62351 1-763); assay: FACS, transfected Expi293 cells
T10 construct: whole, on cells
Procedure: as §1

[11] = target: T11, mTfR-1 P324A on Expi293 cells (mouse, UniProt Q62351 1-763); assay: FACS, transfected Expi293 cells
T11 construct: whole, on cells
Procedure: as §1

[12] = target: T12, mTfR-1 S326A on Expi293 cells (mouse, UniProt Q62351 1-763); assay: FACS, transfected Expi293 cells
T12 construct: whole, on cells
Procedure: as §1

[13] = target: T13, mTfR-1 S329A on Expi293 cells (mouse, UniProt Q62351 1-763); assay: FACS, transfected Expi293 cells
T13 construct: whole, on cells
Procedure: as §1

[14] = target: T14, mTfR-1 P332A on Expi293 cells (mouse, UniProt Q62351 1-763); assay: FACS, transfected Expi293 cells
T14 construct: whole, on cells
Procedure: as §1

[15] = target: T15, mTfR-1 N333A on Expi293 cells (mouse, UniProt Q62351 1-763); assay: FACS, transfected Expi293 cells
T15 construct: whole, on cells
Procedure: as §1

[16] = target: T16, mTfR-1 V382A on Expi293 cells (mouse, UniProt Q62351 1-763); assay: FACS, transfected Expi293 cells
T16 construct: whole, on cells
Procedure: as §1

[17] = target: T17, mTfR-1 L383A on Expi293 cells (mouse, UniProt Q62351 1-763); assay: FACS, transfected Expi293 cells
T17 construct: whole, on cells
Procedure: as §1

[18] = target: T18, mTfR-1 K384A on Expi293 cells (mouse, UniProt Q62351 1-763); assay: FACS, transfected Expi293 cells
T18 construct: whole, on cells
Procedure: as §1

[19] = target: T19, mTfR-1 I192A on Expi293 cells (mouse, UniProt Q62351 1-763); assay: FACS, transfected Expi293 cells; mutant poorly expressed
T19 construct: whole, on cells; also called 1192A
Procedure: as §1

[20] = target: T20, mTfR-1 N201A on Expi293 cells (mouse, UniProt Q62351 1-763); assay: as above
T20 construct: whole, on cells
Procedure: as §1

[21] = target: T21, mTfR-1 F224A on Expi293 cells (mouse, UniProt Q62351 1-763); assay: as above
T21 construct: whole, on cells
Procedure: as §1

[22] = target: T22, mTfR-1 A278T on Expi293 cells (mouse, UniProt Q62351 1-763); assay: as above
T22 construct: whole, on cells
Procedure: as §1

[23] = target: T23, mTfR-1 L331A on Expi293 cells (mouse, UniProt Q62351 1-763); assay: as above
T23 construct: whole, on cells
Procedure: as §1

[24] = target: T24, mTfR-1 I334A on Expi293 cells (mouse, UniProt Q62351 1-763); assay: as above
T24 construct: whole, on cells
Procedure: as §1

[25] = target: T25, mTfR-1 V379A on Expi293 cells (mouse, UniProt Q62351 1-763); assay: as above
T25 construct: whole, on cells
Procedure: as §1

[26] = target: T26, mTfR-1 N381A on Expi293 cells (mouse, UniProt Q62351 1-763); assay: as above
T26 construct: whole, on cells
Procedure: as §1

[27] = target: purified WT mTfR-1 (ELISA coat) (mouse, UniProt Q62351 89-763); assay: ELISA, coated purified mTfR-1
[28] = target: T27, purified mTfR1 mutant M1 (AGS) (mouse, UniProt Q62351 89-763); assay: ELISA, coated purified mTfR-1
T27 construct: also called N253A

[29] = target: T28, mTfR-1 L256A on Expi293 cells (mouse, UniProt Q62351 1-763); assay: FACS, transfected Expi293 cells; mutant poorly expressed
T28 construct: whole, on cells
Procedure: as §1

T15 sequence (Q62351 whole entry N333A): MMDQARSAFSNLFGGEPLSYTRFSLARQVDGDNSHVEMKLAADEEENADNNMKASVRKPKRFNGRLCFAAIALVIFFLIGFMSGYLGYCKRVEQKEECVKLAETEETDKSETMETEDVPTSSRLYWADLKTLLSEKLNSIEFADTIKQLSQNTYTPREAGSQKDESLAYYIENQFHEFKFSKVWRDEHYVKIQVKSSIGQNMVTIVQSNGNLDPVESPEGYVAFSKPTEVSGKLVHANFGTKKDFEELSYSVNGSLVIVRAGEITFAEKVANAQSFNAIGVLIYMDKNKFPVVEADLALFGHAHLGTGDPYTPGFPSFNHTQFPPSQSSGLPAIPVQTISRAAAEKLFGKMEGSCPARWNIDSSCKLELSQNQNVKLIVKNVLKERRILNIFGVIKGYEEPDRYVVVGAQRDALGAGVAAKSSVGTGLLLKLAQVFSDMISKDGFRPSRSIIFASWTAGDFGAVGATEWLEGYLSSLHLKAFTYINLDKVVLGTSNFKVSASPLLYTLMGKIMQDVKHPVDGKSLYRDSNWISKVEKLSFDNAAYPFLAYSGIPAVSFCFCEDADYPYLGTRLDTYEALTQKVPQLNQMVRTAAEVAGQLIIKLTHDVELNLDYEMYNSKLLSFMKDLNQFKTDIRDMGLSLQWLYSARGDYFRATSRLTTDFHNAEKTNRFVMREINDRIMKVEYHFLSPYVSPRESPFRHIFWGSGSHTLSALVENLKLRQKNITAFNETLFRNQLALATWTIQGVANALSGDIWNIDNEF
T20 sequence (Q62351 whole entry N201A): as the sequence (Q62351 whole entry N333A) above, with N201A, A333N counted along it
T24 sequence (Q62351 whole entry I334A): as the sequence (Q62351 whole entry N333A) above, with A333N, I334A counted along it
T7 sequence (Q62351 whole entry E229A): as the sequence (Q62351 whole entry N333A) above, with E229A, A333N counted along it
T18 sequence (Q62351 whole entry K384A): as the sequence (Q62351 whole entry N333A) above, with A333N, K384A counted along it
T2 sequence (Q62351 whole entry Q193A): as the sequence (Q62351 whole entry N333A) above, with Q193A, A333N counted along it
T6 sequence (Q62351 whole entry G199A): as the sequence (Q62351 whole entry N333A) above, with G199A, A333N counted along it
T11 sequence (Q62351 whole entry P324A): as the sequence (Q62351 whole entry N333A) above, with P324A, A333N counted along it
T25 sequence (Q62351 whole entry V379A): as the sequence (Q62351 whole entry N333A) above, with A333N, V379A counted along it
T28 sequence (Q62351 whole entry L256A): as the sequence (Q62351 whole entry N333A) above, with L256A, A333N counted along it
T4 sequence (Q62351 whole entry S197A): as the sequence (Q62351 whole entry N333A) above, with S197A, A333N counted along it
T22 sequence (Q62351 whole entry A278T): as the sequence (Q62351 whole entry N333A) above, with A278T, A333N counted along it
T17 sequence (Q62351 whole entry L383A): as the sequence (Q62351 whole entry N333A) above, with A333N, L383A counted along it
T9 sequence (Q62351 whole entry G254A): as the sequence (Q62351 whole entry N333A) above, with G254A, A333N counted along it
T13 sequence (Q62351 whole entry S329A): as the sequence (Q62351 whole entry N333A) above, with S329A, A333N counted along it
T1 sequence (Q62351 whole entry): as the sequence (Q62351 whole entry N333A) above, with A333N counted along it
T12 sequence (Q62351 whole entry S326A): as the sequence (Q62351 whole entry N333A) above, with S326A, A333N counted along it
T3 sequence (Q62351 whole entry V194A): as the sequence (Q62351 whole entry N333A) above, with V194A, A333N counted along it
T21 sequence (Q62351 whole entry F224A): as the sequence (Q62351 whole entry N333A) above, with F224A, A333N counted along it
T26 sequence (Q62351 whole entry N381A): as the sequence (Q62351 whole entry N333A) above, with A333N, N381A counted along it
T23 sequence (Q62351 whole entry L331A): as the sequence (Q62351 whole entry N333A) above, with L331A, A333N counted along it
T16 sequence (Q62351 whole entry V382A): as the sequence (Q62351 whole entry N333A) above, with A333N, V382A counted along it
T8 sequence (Q62351 whole entry V230A): as the sequence (Q62351 whole entry N333A) above, with V230A, A333N counted along it
T14 sequence (Q62351 whole entry P332A): as the sequence (Q62351 whole entry N333A) above, with P332A, A333N counted along it
T19 sequence (Q62351 whole entry I192A): as the sequence (Q62351 whole entry N333A) above, with I192A, A333N counted along it
T10 sequence (Q62351 whole entry I279A): as the sequence (Q62351 whole entry N333A) above, with I279A, A333N counted along it
T5 sequence (Q62351 whole entry I198A): as the sequence (Q62351 whole entry N333A) above, with I198A, A333N counted along it
Chain of purified WT mTfR-1 (ELISA coat) (Q62351 89-763): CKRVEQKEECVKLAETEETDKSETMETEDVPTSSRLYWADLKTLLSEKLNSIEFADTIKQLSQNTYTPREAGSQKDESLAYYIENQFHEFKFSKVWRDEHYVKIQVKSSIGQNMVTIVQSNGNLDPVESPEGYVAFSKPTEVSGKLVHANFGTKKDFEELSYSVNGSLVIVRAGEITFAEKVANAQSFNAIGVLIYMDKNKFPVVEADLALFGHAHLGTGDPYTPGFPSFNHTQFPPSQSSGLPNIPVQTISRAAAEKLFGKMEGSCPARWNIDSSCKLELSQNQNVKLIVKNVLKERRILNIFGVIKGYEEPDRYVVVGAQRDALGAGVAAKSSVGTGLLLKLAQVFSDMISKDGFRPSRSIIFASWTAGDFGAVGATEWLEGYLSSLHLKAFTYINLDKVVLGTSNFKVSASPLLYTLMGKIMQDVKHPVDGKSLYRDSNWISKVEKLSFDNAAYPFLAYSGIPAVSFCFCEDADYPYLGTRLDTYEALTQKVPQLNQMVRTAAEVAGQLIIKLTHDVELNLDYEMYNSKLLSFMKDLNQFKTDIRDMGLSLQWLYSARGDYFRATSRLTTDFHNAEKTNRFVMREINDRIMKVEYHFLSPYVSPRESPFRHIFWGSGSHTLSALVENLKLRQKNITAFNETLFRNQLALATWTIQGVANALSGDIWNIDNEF
T27 sequence (Q62351 other isoform, or with tags, fused parts or gaps mutant): as the sequence (Q62351 89-763) above, with N165A counted along it

Binder | % double-positive cells vs WT [1] | % double-positive cells vs WT [4] | % double-positive cells vs WT [5] | % double-positive cells vs WT [6] | % double-positive cells vs WT [7] | % double-positive cells vs WT [8] | % double-positive cells vs WT [9] | % double-positive cells vs WT [10] | % double-positive cells vs WT [11] | % double-positive cells vs WT [12] | % double-positive cells vs WT [13] | % double-positive cells vs WT [14] | % double-positive cells vs WT [15] | % double-positive cells vs WT [16] | % double-positive cells vs WT [17] | % double-positive cells vs WT [18] | % double-positive cells vs WT [20] | % double-positive cells vs WT [21] | % double-positive cells vs WT [22] | % double-positive cells vs WT [23] | further results
Clone C VNAR-hFc fusion (Fc fusion, not shown: a dimerising Fc or GST, bivalent VNAR-Fc; also called Clone C-hFc) ARVDQTPQTITKETGESLTINCVLRDSNCALSSTYWYRKKSGSTNEENISKGGRYVETVNSGSKSFSLRINDLTVEDSGTYRCNVVQYPSYNNYFWCDVYGDGTAVTVN | 100% | 111% | 239% | 72% | 81% | 58% | 35% | 177% | 27% | 136% | 212% | 257% | 213% | 357% | 328% | 187% | 0% | 0% | 25% | 0% | % double-positive cells vs WT [2]: 152%; % double-positive cells vs WT [3]: 184%; % double-positive cells vs WT [19]: 61%; % double-positive cells vs WT [24]: 0%; % double-positive cells vs WT [25]: 0%; % double-positive cells vs WT [26]: 32%
Clone C variant 18 VNAR-hFc (Fc fusion, not shown: a dimerising Fc or GST, also called Clone C v18; Clone C var; 18) ARVDQTPQTITKETGESLTINCVLRDSNCALSSTYWYRKKSGSTNEENISKGGRYVETVNSGSKSFSLRINDLTVEDSGTYRCNVVQYPQYPNYFWCDVYGDGTAVTVN | 100% | 66% | 79% | 42% | 51% | 59% | 32% | 206% | 39% | 129% | 182% | 218% | 161% | 241% | 354% | 147% | 0% | 0% | 21% | 0% | EC50 [27]: 0.69 nM; EC50 [28]: 5.9 nM; % double-positive cells vs WT [2]: 178%; % double-positive cells vs WT [3]: 199%; % double-positive cells vs WT [19]: 18%; % double-positive cells vs WT [29]: 0%; % double-positive cells vs WT [24]: 0%; % double-positive cells vs WT [25]: 0%; % double-positive cells vs WT [26]: 0%
Clone C variant 13 VNAR-hFc (Fc fusion, not shown: a dimerising Fc or GST, also called Clone C v13; Clone C var; 13) ARVDQTPQTITKETGESLTINCVLRDSNCALSSTYWYRKKSGSTNEENISKGGRYVETVNSGSKSFSLRINDLTVEDSGTYRCNVVQYPQQDNYFWCDVYGDGTAVTVN | 100% | 56% | 73% | 36% | 43% | 47% | 22% | 85% | 25% | 77% | 73% | 79% | 94% | 111% | 121% | 85% | 0% | 0% | 12% | 0% | EC50 [27]: 0.8 nM; EC50 [28]: 1.1 nM; % double-positive cells vs WT [29]: 0%; % double-positive cells vs WT [24]: 0%; % double-positive cells vs WT [25]: 0%; % double-positive cells vs WT [26]: 11%
8D3 antibody (anti-mouse TfR-1 control; 8D3-hFc formatted antibody) (antibody, V domains shown) VH: EVQLVESGGGLVQPGNSLTLSCVASGFTFSNYGMHWIRQAPKKGLEWIAMIYYDSSKMNYADTVKGRFTISRDNSKNTLYLEMNSLRSEDTAMYYCAVPTSHYVVDVWGQGVSVTVSS VL: DIQMTQSPASLSASLEEIVTITCQASQDIGNWLAWYQQKPGKSPQLLIYGATSLADGVPSRFSGSRSGTQFSLKISRVQVEDIGIYYCLQAYNTPWTFGGGTKLELK | 100% | 100% | 94% | 69% | 68% | 81% | 58% | 74% | 39% | 31% | 18% | 57% | 90% | 82% | 73% | 35% | 1% | 0% | 45% | 0% | % double-positive cells vs WT [2]: 63%; % double-positive cells vs WT [3]: 60%; % double-positive cells vs WT [19]: 13%; % double-positive cells vs WT [29]: 13%; % double-positive cells vs WT [24]: 0%; % double-positive cells vs WT [25]: 0%; % double-positive cells vs WT [26]: 26%

— patent US20210403591A1 (OSSIANIX, published 2021)
